Data taken from patent publication US20170306033A1 (Amgen, published 2017).
Residue numbers refer to the chain shown, from its start.

T1: human PAC1 receptor (human, UniProt P41586 21-468)
T1 sequence: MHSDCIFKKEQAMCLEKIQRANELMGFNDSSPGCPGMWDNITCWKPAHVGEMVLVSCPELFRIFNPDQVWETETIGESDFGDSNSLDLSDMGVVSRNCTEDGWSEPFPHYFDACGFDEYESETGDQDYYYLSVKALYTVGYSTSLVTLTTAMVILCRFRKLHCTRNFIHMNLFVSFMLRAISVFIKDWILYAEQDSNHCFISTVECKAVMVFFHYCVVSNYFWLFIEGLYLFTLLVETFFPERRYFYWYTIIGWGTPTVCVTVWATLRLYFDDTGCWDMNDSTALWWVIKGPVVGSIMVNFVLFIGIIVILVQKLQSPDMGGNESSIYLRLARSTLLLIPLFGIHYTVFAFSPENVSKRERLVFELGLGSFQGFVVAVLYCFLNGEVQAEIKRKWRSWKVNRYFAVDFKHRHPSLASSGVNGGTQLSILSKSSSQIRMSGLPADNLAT

B1: iPS:327874 (bispecific antibody, human IgG1, kappa, N297G)
light 1: not shown
heavy 1: not shown
light 2: EIVLTQSPGTLSLSPGERATLSCRASQSVSSGYLTWYQQKPGQAPRLLIYGASSRATGIPDRFSGSGSGTDFTLTISRLEPEDFAVYYCQQYGNSLSRFGQGTKLEIKRTVAAPSVFIFPPSDEQLKSGTASVVCLLNNFYPREAKVQWKVDNALQSGNSQESVTEQDSKDSTYSLKSTLTLSKADYEKHKVYACEVTHQGLSSPVTKSFNRGEC
heavy 2: not shown
B2: iPS:326666 (bispecific antibody, human IgG2, kappa)
light 1: not shown
heavy 1: QVQLQESGPGLVKPSQTLSLTCTVSGGSISSGGYYWSWIRQHPGKGLEWIGYIYYSGNTYYNPSLKSRVTISGDTSKNQFSLKLRSVTAADTAVYYCTRGGAARGMDVWGQGTTVTVSSASTKGPSVFPLAPCSRSTSESTAALGCLVKDYFPEPVTVSWNSGALTSGVHTFPAVLQSSGLYSLKSVVTVPSSNFGTQTYTCNVDHKPSNTKVDKTVERKCCVECPPCPAPPVAGPSVFLFPPKPKDTLMISRTPEVTCVVVDVSHEDPEVQFNWYVDGVEVHNAKTKPREEQFNSTFRVVSVLTVVHQDWLNGKEYKCKVSNKGLPAPIEKTISKTKGQPREPQVYTLPPSREEMTKNQVSLTCLVDGFYPSDIAVEWESNGQPENNYDTTPPMLDSDGSFFLYSDLTVDKSRWQQGNVFSCSVMHEALHNHYTQKSLSLSPGK
light 2: B1 light 2
heavy 2: QVQLVESGGGVVQPGRSLRLSCAASGFTFSSYGMHWVRQAPGKGLEWVAVIWYDGSNKYYADSVKGRFIISRDKSKNTLYLQMNSLRAEDTAVYYCARAGGIAAAGLYYYYGMDVWGQGTTVTVSSASTKGPSVFPLAPCSRSTSESTAALGCLVKDYFPEPVTVSWNSGALTSGVHTFPAVLQSSGLYSLESVVTVPSSNFGTQTYTCNVDHKPSNTKVDKTVERKCCVECPPCPAPPVAGPSVFLFPPKPKDTLMISRTPEVTCVVVDVSHEDPEVQFNWYVDGVEVHNAKTKPREEQFNSTFRVVSVLTVVHQDWLNGKEYKCKVSNKGLPAPIEKTISKTKGQPREPQVYTLPPSRKKMTKNQVSLTCLVKGFYPSDIAVEWESNGQPENNYKTTPPMLKSDGSFFLYSKLTVDKSRWQQGNVFSCSVMHEALHNHYTQKSLSLSPGK
B3: iPS:327880 (bispecific antibody, human IgG1, kappa, lambda, N297G)
light 1: not shown
heavy 1: not shown
light 2: QSVLTQPPSVSAAPGQKVTISCSGSSSNIGNNYVSWYQQLPGTAPKLLIYDNNKRPSGIPDRFSGSKSGTSTTLGITGLQTGDEADYYCGTWDSRLSAVVFGKGTKLTVLGQPKANPTVTLFPPSSEELQANKATLVCLISDFYPGAVTVAWKADGSPVKAGVETTKPSKQSNNKYAAKSYLSLTPEQWKSHRSYSCQVTHEGSTVEKTVAPTECS
heavy 2: QVQLVESGGGVVQPGRSLRLSCAASGFTFSSFGMHWVRQAPGKELEWVAVISFDGSIKYSVDSVKGRFTISRDNSKNTLFLQMNSLRAEDTAVYYCARDRLNYYESSGYYHYKYYGMAVWGQGTTVTVSSASTKGPSVFPLAPSSKSTSGGTAALGCLVKDYFPEPVTVSWNSGALTSGVHTFPAVLQSSGLYSLESVVTVPSSSLGTQTYICNVNHKPSNTKVDKKVEPKSCDKTHTCPPCPAPELLGGPSVFLFPPKPKDTLMISRTPEVTCVVVDVSHEDPEVKFNWYVDGVEVHNAKTKPCEEQYGSTYRCVSVLTVLHQDWLNGKEYKCKVSNKALPAPIEKTISKAKGQPREPQVYTLPPSRKEMTKNQVSLTCLVKGFYPSDIAVEWESNGQPENNYKTTPPVLKSDGSFFLYSKLTVDKSRWQQGNVFSCSVMHEALHNHYTQKSLSLSPGK
B4: iPS:327881 (bispecific antibody, human IgG1, kappa, lambda, N297G)
light 1: DIQMTQSPSSLSASVGDRITITCRASQSISRYLNWYQQKPGKAPKLLIYAASSLQSGIPSRFSGSGSGTDFTLTINSLQPEDFATYFCQQSYSPPFTFGQGTKVDIKRTVAAPSVFIFPPSDEQLKSGTASVVCLLNNFYPREAKVQWKVDNALQSGNSQESVTEQDSKDSTYSLESTLTLSKADYEKHKVYACEVTHQGLSSPVTKSFNRGEC
heavy 1: not shown
light 2: B3 light 2 with K103G
heavy 2: B3 heavy 2 with E44G, E370K
B5: iPS:327895 (bispecific antibody, human IgG1, kappa, lambda, N297G)
light 1: not shown
heavy 1: not shown
light 2: B3 light 2 with T72A
heavy 2: B3 heavy 2
B6: iPS:327886 (bispecific antibody, human IgG1, kappa, lambda, N297G)
light 1: B4 light 1
heavy 1: not shown
light 2: B3 light 2 with T72A, K103G
heavy 2: B3 heavy 2 with E44G, E105D, E370K
B7: iPS:327896 (bispecific antibody, human IgG1, kappa, lambda, N297G)
light 1: B4 light 1
heavy 1: not shown
light 2: B3 light 2 with T72A, K103G
heavy 2: B3 heavy 2 with E44G, E370K
B8: iPS:327885 (bispecific antibody, human IgG1, kappa, lambda, N297G)
light 1: not shown
heavy 1: not shown
light 2: B3 light 2 with T72A
heavy 2: B3 heavy 2 with E105D
B9: iPS:327883 (bispecific antibody, human IgG1, kappa, lambda, N297G)
light 1: B4 light 1
heavy 1: not shown
light 2: B3 light 2 with T72A, K103G
heavy 2: B3 heavy 2 with E44G, E105D
B10: iPS:327882 (bispecific antibody, human IgG1, kappa, lambda, N297G)
light 1: not shown
heavy 1: not shown
light 2: B3 light 2 with K103G
heavy 2: B3 heavy 2 with E44G, E370K
B11: iPS:327893 (bispecific antibody, human IgG1, kappa, lambda, N297G)
light 1: B4 light 1
heavy 1: not shown
light 2: B3 light 2 with T72A, K103G
heavy 2: B3 heavy 2 with E44G
B12: iPS:327894 (bispecific antibody, human IgG1, kappa, lambda, N297G)
light 1: not shown
heavy 1: not shown
light 2: B3 light 2 with T72A, K103G
heavy 2: B3 heavy 2 with E44G
B13: iPS:327884 (bispecific antibody, human IgG1, kappa, lambda, N297G)
light 1: not shown
heavy 1: not shown
light 2: B3 light 2 with T72A, K103G
heavy 2: B3 heavy 2 with E44G, E105D
B14: iPS:327892 (bispecific antibody, human IgG1, kappa, lambda, N297G)
light 1: not shown
heavy 1: not shown
light 2: B3 light 2 with T72A, G75A, K103G
heavy 2: B3 heavy 2 with E44G, E105D, E370K
B15: iPS:327891 (bispecific antibody, human IgG1, kappa, lambda, N297G)
light 1: B4 light 1
heavy 1: not shown
light 2: B3 light 2 with T72A, G75A, K103G
heavy 2: B3 heavy 2 with E44G, E105D, E370K
B16: iPS:327887 (bispecific antibody, human IgG1, kappa, lambda, N297G)
light 1: not shown
heavy 1: not shown
light 2: B3 light 2 with T72A, K103G
heavy 2: B3 heavy 2 with E44G, E105D, E370K

Target: human CGRP receptor (human, UniProt Q16602 23-461; O60894 27-148)
Test: cell-based or functional assay

Sequence of human CGRP receptor (Q16602 23-461 limits assumed, chain 1 of 2): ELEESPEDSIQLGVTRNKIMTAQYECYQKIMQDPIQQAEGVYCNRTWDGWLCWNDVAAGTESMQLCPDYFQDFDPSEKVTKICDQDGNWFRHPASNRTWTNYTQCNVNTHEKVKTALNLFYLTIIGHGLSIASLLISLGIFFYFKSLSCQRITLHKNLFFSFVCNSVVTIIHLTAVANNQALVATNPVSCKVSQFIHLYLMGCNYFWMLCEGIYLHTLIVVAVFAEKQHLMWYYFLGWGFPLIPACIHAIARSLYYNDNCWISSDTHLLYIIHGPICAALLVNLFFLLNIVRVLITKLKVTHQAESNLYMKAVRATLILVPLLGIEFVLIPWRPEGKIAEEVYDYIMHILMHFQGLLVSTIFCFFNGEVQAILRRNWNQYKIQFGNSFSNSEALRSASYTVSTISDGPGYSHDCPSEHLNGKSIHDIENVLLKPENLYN
Sequence of human CGRP receptor (O60894 27-148 limits assumed, chain 2 of 2): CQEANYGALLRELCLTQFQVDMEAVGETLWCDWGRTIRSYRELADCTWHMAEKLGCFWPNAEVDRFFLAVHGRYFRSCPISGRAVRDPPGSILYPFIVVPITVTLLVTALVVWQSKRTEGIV

% inhibition of human CGRPR [%] | Binder
95 | B1
74 | B2
87 | B3
76 | B4
80 | B5
72 | B6
87 | B7
73 | B8
77 | B9
83 | B10
74 | B11
80 | B12
78 | B13
88 | B14
80 | B15
87 | B16

Target: T1, human PAC1 receptor
Test: cell-based or functional assay

% inhibition of human PAC1 [%] | Binder
5 | B1
15 | B2
15 | B3
16 | B4
15 | B5
65 | B6
28 | B7
7 | B8
27 | B9
13 | B10
56 | B11
12 | B12
8 | B13
33 | B14
78 | B15
35 | B16
